In the supplement of paper PMC12042874 one finds amyloid nucleation score data, which are given here for 132 substances.

± gives the uncertainty stated by the source.

The data set can be described thus: amyloid nucleation score (Sup35N fusion, yeast selection) (log enrichment); library NNK3; higher = more nucleation; inactive = no reads after selection. The method, boiled down:
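Using DiMSum, nucleation scores were taken as the log enrichment of output over input reads, centred on the mode score of non-aggregating sequences. The input and output reads came from Illumina sequencing of plasmid inserts, with sequences under 100 input reads excluded. The yeast were psi-negative, expressed Sup35N fused to peptides of 20 random codons, were induced with 100 μM copper sulfate for 24 hours, and were grown 7 days at 30°C on medium lacking adenine and uracil.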
As to TYKHNSTYIKPLTSFLQSGG, the amyloid nucleation score entry was “inactive”. TYKRIPYELTRSGTKPLYTP: the amyloid nucleation score result is “inactive”. TYLLYCCVVVR: the amyloid nucleation score result is “inactive”.

In the case of TYLRLTWIDCYSPCFKSNAI, the amyloid nucleation score turned out to be 2.43 ± 0.061. As to TYMTYERVYL, the amyloid nucleation score result was “inactive”.

Regarding TYQST, the amyloid nucleation score entry was “inactive”. Take TYSIISENIVVFFNRM: the amyloid nucleation score amounted to 2.58 ± 0.059. As to TYSSGFAPGWN, the amyloid nucleation score entry was “inactive”.

Take TYSVGHR: the amyloid nucleation score result was “inactive”. Consider TYTVYLRRYAYYECTFRQFL, for which the amyloid nucleation score result was “inactive”. As to TYVKYKRILQQGIYAVVMNV, the amyloid nucleation score result is “inactive”. Consider VAFGWDLFFNVLNLHCNVSN, for which the amyloid nucleation score is 1.89 ± 0.069.

The substance VALDNCTFVLVAMQTDQD had an amyloid nucleation score of 0.817 ± 0.12. In the case of VAMRDERGLFNRLWLRVFV, the amyloid nucleation score result was “inactive”. Turning to VAQSFEIGYYSGLYIYYCSV, the amyloid nucleation score entry was “inactive”. In turn, VAVDIRALFRGRWVMNLARR showed an amyloid nucleation score of -0.75 ± 1.5. VCCCHLCL showed an amyloid nucleation score of 0.17 ± 0.56. On to VCLCNQVRLTM, for which the amyloid nucleation score entry was “inactive”.

In the case of VCLHFMGLRVAFLAGMFIII, the amyloid nucleation score entry was “inactive”. As to VCNMRVYI, the amyloid nucleation score result is “inactive”. Substance VCNMYFSFIRNLRGFNRNQC yielded an amyloid nucleation score of 2.06 ± 0.062.

Substance VCQGFSKFLRWSQVRFLSMA had an amyloid nucleation score of -0.288 ± 1.4. For the substance VCSDGLNWGHGVRMLWY, the amyloid nucleation score entry was “inactive”.

With VCSHGFCACCRNNKDETWCD, the amyloid nucleation score is -0.331 ± 0.66.

Regarding VCSVTFMLVLLCMRHCLITR, the amyloid nucleation score result was “inactive”. Next, VCTTMCDTRWVTISYF: “inactive”; VCVTSSSMCNFDGLVVTRVV: “inactive”. For VDAIASGVYWPPVVVYSWLF, the amyloid nucleation score result was “inactive”. With VDEDQLRHMWVHSD, the amyloid nucleation score entry is “inactive”. Take VDISFVSAWKDLLLGRLVCD: the amyloid nucleation score entry is “inactive”. Take VDKDTE: the amyloid nucleation score result is “inactive”. Take VDKWSCVDNFFSY: the amyloid nucleation score entry is “inactive”. VDMVGYRNLRCHSN: the amyloid nucleation score result was “inactive”. On to VDNSYQFSLKTDSNYNIERQ, for which the amyloid nucleation score result was “inactive”.

As for VDQPQ, the amyloid nucleation score result was “inactive”. With VDWNRTFEIKSVEGDVKGAL, the amyloid nucleation score result is “inactive”. Next, VEAMQVWDSSFMSCTNLFTS: “inactive”; VECCNGLCDDVLGAVGNLGL: “inactive”. On to VECHPCSHFDLHNGRIRDNR, for which the amyloid nucleation score entry was “inactive”. In the case of VEEGFGLMSKIAHSIGLREC, the amyloid nucleation score is -0.278 ± 1.4.

In the case of VEFTN, the amyloid nucleation score result is “inactive”. As to VEGCMIFMVVSLLKHYASYT, the amyloid nucleation score result was “inactive”. As for VEIKYSVFLRWHVMRDDRLD, the amyloid nucleation score entry was “inactive”.

As for VEKAIAFGNF, the amyloid nucleation score result is “inactive”. For VEMFNITAYTIKSLRVIGLV, the amyloid nucleation score entry is “inactive”.

Regarding VEMGVLSGFK, the amyloid nucleation score was -0.288 ± 0.75. In the case of VENKMFDRGGFYVWMCGLSD, the amyloid nucleation score result is “inactive”. VENLHNHYQYVFKNGMCDG returned an amyloid nucleation score of 0.263 ± 0.22. Next, VEQMLVFDTPLSYLVKQVKF: “inactive”; VESFICDMIVSPHSLS: “inactive”. For the substance VEWMFTEMSVCLE, the amyloid nucleation score entry was “inactive”.

Regarding VEYQNI, the amyloid nucleation score entry is “inactive”.

As for VFAARAKRY, the amyloid nucleation score entry is “inactive”. For VFASQ, the amyloid nucleation score is 1.3 ± 0.13. The substance VFCAGLFDTMCCSDGASVEV displayed an amyloid nucleation score of 1.16 ± 0.095. VFDPGLSNCWRVTGWNED: the amyloid nucleation score result was “inactive”.

For VFDSCRTFSMYTDLLGWEWR, the amyloid nucleation score entry was “inactive”. In the case of VFIGSVGFSDLWKLSVAYNY, the amyloid nucleation score entry was “inactive”. Turning to VFKCCVLFGGSRWFTLFLWF, the amyloid nucleation score result is “inactive”.

In the case of VFLCMGTYDTCFL, the amyloid nucleation score was 0.638 ± 0.16.

As to VFLGCYSSYIVIWDARAPG, the amyloid nucleation score was determined as 1.96 ± 0.071. Turning to VFLNQCLSGVMGLEGVSLDR, the amyloid nucleation score result is “inactive”. On to VFLPLPPCTC, for which the amyloid nucleation score entry was “inactive”. Take VFLQRCVDYMCDRNCFSVFA: the amyloid nucleation score result is “inactive”. Regarding VFMNKGQRV, the amyloid nucleation score result is “inactive”. VFNKCVQFYFILGRNNEIWI: the amyloid nucleation score amounted to 2.56 ± 0.077. Next, VFPKSYTPDQTFPCNSSLAK: “inactive”; VFQRR: “inactive”; VFRLLVDKYCGFSPVGLPDV: “inactive”. VFTFAWMLNRVISNYHPTIP: the amyloid nucleation score entry was “inactive”. Substance VFVAMNVFMVWICRLQGSLT had an amyloid nucleation score of 0.508 ± 0.33. In turn, VFVFDVLFGLLNMANFREVD showed an amyloid nucleation score of -0.713 ± 0.88. For the substance VFVPVYPEFFVRSG, the amyloid nucleation score result was “inactive”. For the substance VFVVGSVSRCCKKLVT, the amyloid nucleation score entry is “inactive”. Next, VGAGWYN: “inactive”; VGCHLWEHWRSMQVR: “inactive”; VGERLANQIGTYCDDQWWTW: “inactive”. For VGFILWFGGHCGS, the amyloid nucleation score came out at 0.659 ± 0.23. Turning to VGGPNCIQAFS, the amyloid nucleation score result was “inactive”.

Take VGGQWGAYAAKA: the amyloid nucleation score entry was “inactive”.

On to VGIRWYGFDTCRRKFGTWNI, for which the amyloid nucleation score result was “inactive”. As to VGLISGVCDDGSGSMSSRLW, the amyloid nucleation score result is “inactive”. With VGLIWVVSFIDKNSYGWSGT, the amyloid nucleation score result is “inactive”. VGLWVAYYGRETNRVDNYVT: the amyloid nucleation score entry was “inactive”. With VGNGYTMSG, the amyloid nucleation score entry is “inactive”.

As for VGNQKIIMRGALELDRELTC, the amyloid nucleation score entry was “inactive”.

With VGRRDN, the amyloid nucleation score result was “inactive”. As for VGRSNH, the amyloid nucleation score entry is “inactive”. In the case of VGSGCNISTKTACFYMKLIA it was “inactive”; in that of VGSQEANLAVGI, “inactive”; in that of VGYMALQETILVIVDDGVTE, “inactive”. Regarding VHNYHERALKKHEGTTVRNF, the amyloid nucleation score amounted to 0.154 ± 0.4. In the case of VHSFLKYGGNSAIGLLPEDS it was “inactive”; in that of VHTCGRKVWFEA, “inactive”; in that of VICGCWIFFFYFLK, -0.354 ± 0.73.

Turning to VIDRNWRRLHSWVGLVGRAR, the amyloid nucleation score entry is “inactive”. For the substance VIFISILPLRKCSDKWEDNN, the amyloid nucleation score entry is “inactive”. Regarding VIFYCFSRILTYKSIVVG, the amyloid nucleation score entry was “inactive”.

As for VIGAFRLYNFNVALISSNIS, the amyloid nucleation score result was “inactive”. On to VIGRTASDGVRCCRVGMMRR, for which the amyloid nucleation score entry was “inactive”.

As to VIGRVRIGLVFRSTIGFSEG, the amyloid nucleation score entry is “inactive”. With VIIPNFWLFEGLRAGKRRG, the amyloid nucleation score result was “inactive”.

With VIITNEMVDRVDGDTTSYMH, the amyloid nucleation score is -0.003 ± 1. For VIITSSTVLMFRFLEYRESQ, the amyloid nucleation score entry was “inactive”. Substance VIKTHMWLGL returned an amyloid nucleation score of 0.633 ± 0.24. Consider VINVT, for which the amyloid nucleation score result is “inactive”. On to VIPARADATGPKEHGWLQLQ, for which the amyloid nucleation score result was “inactive”. VIQIYIMRCLYDYYI returned an amyloid nucleation score of 2.8 ± 0.063.

Regarding VIRGRMMCHGIGAYVVWKSH, the amyloid nucleation score result is “inactive”. On to VIRQVCYYRLGEWLLGAR, for which the amyloid nucleation score result was “inactive”.

In the case of VIRVKSSCLVLLEHKLLACG, the amyloid nucleation score result was “inactive”. Next, VISGNNVCSIRSDFRKIFFY: 0.762 ± 0.17; VISMRVTGVVHRFWNEVYRD: 1.22 ± 0.1; VITLYVVGVYWGGNDIGDFM: 0.976 ± 0.19. Regarding VIVRRSQFTELICLFYNFTM, the amyloid nucleation score entry is “inactive”. Next, VIWVPVKIR: “inactive”. Next, VIYLKTRWNSWCPAGGVLLC: “inactive”.

For VKDSLMGCKIPCN, the amyloid nucleation score entry was “inactive”. In the case of VKDYNYKFWALPSVPREWVF it was “inactive”; in that of VKLNYISLDENVRSVKQVMI, “inactive”.

As for VKMSWHHHCLFLICLCTSYE, the amyloid nucleation score came out at 0.606 ± 0.13.

With VKRADNSSSALRWYLNMYNL, the amyloid nucleation score result is “inactive”. Consider VKSFCCFGWVLSP, for which the amyloid nucleation score result is “inactive”.

As for VKSLIELCRYNRPLALDLNI, the amyloid nucleation score is -0.519 ± 0.8. VKTKPFHLRYR: the amyloid nucleation score entry is “inactive”. Regarding VKTWCYRCCSGALSLS, the amyloid nucleation score result was “inactive”. For the substance VKYYDFCEPGRGYKDIRRL, the amyloid nucleation score result was “inactive”.

As to VLAGACDYPYGNVLV, the amyloid nucleation score result is “inactive”.

VLCNYGCGIDFAV returned an amyloid nucleation score of 0.181 ± 0.53.

As to VLCSVFIFFLRGFDS, the amyloid nucleation score is 2.3 ± 0.066.

VLDAIVATDRL: the amyloid nucleation score result is “inactive”. The substance VLDKVKWTLLCNGRRAVAPW yielded an amyloid nucleation score of -0.089 ± 1.4.
